Data published in PMC3496993.

Molecular target: α2β1 integrin on K562 cells transfected with the α2 integrin subunit (not stated | human (endogenous in K562)) (UniProt P17301)
UniProt P17301, sequence (P17301 30-1181, chain 1 of 2): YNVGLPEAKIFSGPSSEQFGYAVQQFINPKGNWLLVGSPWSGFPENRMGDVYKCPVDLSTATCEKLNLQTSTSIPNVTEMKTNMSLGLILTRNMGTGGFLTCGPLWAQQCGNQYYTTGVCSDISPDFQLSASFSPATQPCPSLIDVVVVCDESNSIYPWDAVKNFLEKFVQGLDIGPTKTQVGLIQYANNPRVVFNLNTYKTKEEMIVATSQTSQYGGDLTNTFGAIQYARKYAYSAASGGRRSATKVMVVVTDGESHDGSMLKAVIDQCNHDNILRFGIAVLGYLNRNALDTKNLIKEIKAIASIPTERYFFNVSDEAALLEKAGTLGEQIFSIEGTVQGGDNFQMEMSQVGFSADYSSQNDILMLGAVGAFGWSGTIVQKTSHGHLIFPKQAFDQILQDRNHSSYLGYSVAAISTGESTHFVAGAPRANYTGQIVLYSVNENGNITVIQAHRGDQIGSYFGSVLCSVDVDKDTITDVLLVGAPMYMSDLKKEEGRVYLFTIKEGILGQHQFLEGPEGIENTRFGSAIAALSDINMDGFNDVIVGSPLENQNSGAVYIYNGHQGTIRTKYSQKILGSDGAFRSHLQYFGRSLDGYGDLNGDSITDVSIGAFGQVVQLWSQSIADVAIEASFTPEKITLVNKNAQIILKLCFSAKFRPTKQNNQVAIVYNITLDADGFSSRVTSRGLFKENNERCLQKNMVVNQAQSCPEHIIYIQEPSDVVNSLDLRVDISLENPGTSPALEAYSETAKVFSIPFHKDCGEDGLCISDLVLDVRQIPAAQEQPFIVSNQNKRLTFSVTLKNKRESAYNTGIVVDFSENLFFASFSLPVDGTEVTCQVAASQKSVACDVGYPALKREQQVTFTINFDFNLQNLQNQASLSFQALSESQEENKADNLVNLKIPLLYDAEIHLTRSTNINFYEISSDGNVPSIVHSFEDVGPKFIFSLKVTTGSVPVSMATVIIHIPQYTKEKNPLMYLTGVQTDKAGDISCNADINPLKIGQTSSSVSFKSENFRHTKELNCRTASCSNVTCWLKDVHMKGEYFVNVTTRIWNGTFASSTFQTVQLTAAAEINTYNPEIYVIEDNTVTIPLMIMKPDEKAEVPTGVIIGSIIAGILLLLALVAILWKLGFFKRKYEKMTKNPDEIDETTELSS
UniProt P17301, sequence (P05556 21-798, chain 2 of 2, further chain): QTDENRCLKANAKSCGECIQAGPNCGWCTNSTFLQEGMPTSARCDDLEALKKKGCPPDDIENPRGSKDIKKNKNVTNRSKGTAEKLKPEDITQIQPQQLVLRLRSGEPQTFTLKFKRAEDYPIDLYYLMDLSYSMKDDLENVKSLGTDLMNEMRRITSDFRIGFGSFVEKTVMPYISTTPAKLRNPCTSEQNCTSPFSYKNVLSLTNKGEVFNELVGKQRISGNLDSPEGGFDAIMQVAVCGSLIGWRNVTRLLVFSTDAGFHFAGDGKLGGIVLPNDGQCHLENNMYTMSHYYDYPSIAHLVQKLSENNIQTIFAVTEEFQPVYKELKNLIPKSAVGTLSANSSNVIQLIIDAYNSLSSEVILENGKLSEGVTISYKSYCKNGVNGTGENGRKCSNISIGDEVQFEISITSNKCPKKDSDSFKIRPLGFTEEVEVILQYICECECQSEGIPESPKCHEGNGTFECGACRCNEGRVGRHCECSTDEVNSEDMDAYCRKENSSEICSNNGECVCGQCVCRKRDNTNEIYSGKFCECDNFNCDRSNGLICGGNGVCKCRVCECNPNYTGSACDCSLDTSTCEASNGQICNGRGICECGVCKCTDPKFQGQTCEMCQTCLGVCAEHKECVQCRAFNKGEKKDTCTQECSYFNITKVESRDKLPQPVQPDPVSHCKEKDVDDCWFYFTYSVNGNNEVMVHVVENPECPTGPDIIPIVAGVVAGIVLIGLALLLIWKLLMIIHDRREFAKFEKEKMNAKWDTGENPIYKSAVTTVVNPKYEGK

## Vixapatin (VP12), C-type lectin-like protein from Vipera xantina palestinae venom (complex)
  IC50 of inhibition of adhesion of α2K562 transfectants to immobilised collagen I (blocks collagen I with α2β1), dose-response of Vixapatin: 3.2 nM
